Laboratory results: the RNAGym collection of RNA variant scans (doi:10.1093/nar/gkz1192)

B1: CPEB3 Ribozyme (parent)
chain: UAACAGGGGGCCACAGCAGAAGCGUUCACGUCGCAGCCCCUGUCAGAUUCUGGUGAAUCUGCGAAUUCUGCUGUAUAUCUC

Variants of: B1
Assay: self-cleavage, relative activity (ratio to wild type); higher = more cleavage; in vitro, sequencing
In short: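 CPEB3 self-cleaving ribozyme mutant libraries were made by rounds of error-prone PCR, barcoded, and transcribed in vitro with T7 RNA polymerase for 5 hours at 37°C. Cleavage occurred during transcription and a 15 min DNase I step before EDTA stop. RNAs were reverse transcribed with template switching and Illumina-sequenced, with DNA sequencing mapping barcodes to variants. Relative activity is the variant's cleaved/total read fraction divided by wild type's (minimum 5 reads), averaged across three batches.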

Point of comparison: U26C U69G, self-cleavage 0.17. Against it:
- U26C A77C — higher, 0.45
- U26C A77G — higher, 0.46
- U26C A77U — higher, 0.53
- U26C C27U — higher, 0.27
- U26C C29A — higher, 0.18
- U26C C29G — higher, 0.35
- U26C C29U — higher, 0.29
- U26C C32A — higher, 0.22
- U26C C32G — lower, 0.11
- U26C C32U — lower, 0.16
- U26C C37A — lower, 0.13
- U26C C37G — higher, 0.71
- U26C C37U — higher, 0.32
- U26C C38A — higher, 0.19
- U26C C38G — lower, 0.09
- U26C C38U — higher, 0.4
- U26C C39A — higher, 0.33
- U26C C39U — higher, 0.61
- U26C C40A — higher, 0.26
- U26C C40U — higher, 0.34
- U26C C44A — lower, 0.09
- U26C C44U — higher, 0.26
- U26C C50A — higher, 0.44
- U26C C50G — higher, 0.22
- U26C C50U — higher, 0.27
- U26C C59A — the same, 0.17
- U26C C62A — higher, 0.38
- U26C C62G — the same, 0.17
- U26C C62U — lower, 0.16
- U26C C68A — higher, 0.28
- U26C C68U — higher, 0.5
- U26C C71A — lower, 0.1
- U26C C71U — higher, 0.24
- U26C C79A — higher, 0.61
- U26C C79G — higher, 0.59
- U26C C79U — higher, 0.55
- U26C C81A — higher, 0.63
- U26C C81U — higher, 0.5
- U26C G30A — higher, 0.27
- U26C G30U — lower, 0.16
- U26C G33A — higher, 0.24
- U26C G33C — lower, 0.13
- U26C G33U — higher, 0.24
- U26C G36A — lower, 0.13
- U26C G36C — lower, 0.15
- U26C G36U — higher, 0.25
- U26C G42A — higher, 0.31
- U26C G42C — lower, 0.15
- U26C G42U — higher, 0.25
- U26C G46A — the same, 0.17
- U26C G52A — higher, 0.76
- U26C G52C — higher, 0.27
- U26C G53A — higher, 0.51
- U26C G55A — higher, 0.43
- U26C G55C — higher, 0.33
- U26C G61C — higher, 0.25
- U26C G61U — higher, 0.35
- U26C G63A — higher, 0.35
- U26C G63C — higher, 0.41
- U26C G63U — higher, 0.61
- U26C G70A — higher, 0.59
- U26C G70C — lower, 0.12
- U26C G70U — higher, 0.26
- U26C G73A — higher, 0.99
- U26C G73U — higher, 1
- U26C U31A — higher, 0.27
- U26C U31C — higher, 0.35
- U26C U31G — higher, 0.32
- U26C U41A — higher, 0.28
- U26C U41C — higher, 0.45
- U26C U41G — higher, 0.31
- U26C U43A — higher, 0.26
- U26C U43C — higher, 0.77
- U26C U43G — higher, 0.7
- U26C U48A — higher, 0.23
- U26C U48C — higher, 0.33
- U26C U48G — higher, 0.47
- U26C U49A — higher, 0.3
- U26C U49C — higher, 0.34
- U26C U51A — higher, 0.43
- U26C U51C — higher, 0.44
- U26C U51G — higher, 0.46
- U26C U54A — higher, 0.5
- U26C U54C — higher, 0.44
- U26C U54G — higher, 0.27
- U26C U58A — lower, 0.15
- U26C U58C — higher, 0.29
- U26C U58G — higher, 0.28
- U26C U60A — higher, 0.39
- U26C U60C — higher, 0.27
- U26C U60G — higher, 0.3
- U26C U66A — higher, 0.23
- U26C U66C — higher, 0.26
- U26C U66G — higher, 0.21
- U26C U67A — higher, 0.24
- U26C U67C — higher, 0.22
- U26C U67G — higher, 0.21
- U26C U69A — higher, 0.26
- U26C U69C — higher, 0.27
- U26C U72A — higher, 0.36
- U26C U72C — higher, 0.65
- U26C U72G — higher, 0.41
- U26C U74A — higher, 0.73
- U26C U74C — higher, 0.79
- U26C U74G — higher, 0.78
- U26C U76A — higher, 0.53
- U26C U76C — higher, 0.52
- U26C U76G — higher, 0.55
- U26C U78A — higher, 0.51
- U26C U78C — higher, 0.42
- U26C U80A — higher, 0.51
- U26C U80C — higher, 0.56
- U26C U80G — higher, 0.54
- U26G — higher, 0.31
- U26G A35G — higher, 0.8
- U26G A35U — lower, 0.13
- U26G A45C — lower, 0.09
- U26G A45G — the same, 0.17
- U26G A45U — the same, 0.17
- U26G A47G — higher, 0.39
- U26G A56G — higher, 0.24
- U26G A56U — lower, 0.1
- U26G A57G — higher, 0.27
- U26G A64G — higher, 0.25
- U26G A65G — higher, 0.35
- U26G A65U — lower, 0.15
- U26G A75G — lower, 0.16
- U26G A77G — higher, 0.34
- U26G C27U — higher, 0.63
- U26G C34G — lower, 0.07
- U26G C38A — higher, 0.58
- U26G C44A — higher, 0.25
- U26G C59A — lower, 0.16
- U26G C62A — lower, 0.13
- U26G C68U — higher, 0.35
- U26G C79A — higher, 0.19
- U26G C79U — higher, 0.4
- U26G G53A — higher, 0.24
- U26G G73A — higher, 0.89
- U26G U31A — higher, 0.3
- U26G U31C — higher, 0.25
- U26G U41A — higher, 0.28
- U26G U41C — higher, 0.4
- U26G U43A — higher, 0.41
- U26G U43C — higher, 1.02
- U26G U48A — higher, 0.37
- U26G U48C — higher, 0.22
- U26G U49A — higher, 0.28
- U26G U49G — lower, 0.05
- U26G U51A — higher, 0.42
- U26G U51G — higher, 0.33
- U26G U54A — higher, 0.19
- U26G U58C — higher, 0.36
- U26G U60C — lower, 0.11
- U26G U66C — lower, 0.16
- U26G U66G — higher, 0.2
- U26G U69A — higher, 0.21
- U26G U69C — higher, 0.37
- U26G U72A — lower, 0.14
- U26G U72C — higher, 0.31
- U26G U74A — higher, 0.41
- U26G U74C — higher, 0.39
- U26G U76A — higher, 0.32
- U26G U76C — higher, 0.45
- U26G U78A — higher, 0.51
- U26G U78C — higher, 0.3
